From paper PMC8260793, “A split protease-E. coli ClpXP system quantifies protein–protein interactions in Escherichia coli cells” (Communications Biology, 2021)

B1: Cas3 of E. coli K12 Type I-E CRISPR/Cas complex [E. coli K12] / Cas7 of E. coli K12 Type I-E CRISPR/Cas complex [E. coli K12] (parent complex)
chain 1: MEPFKYICHYWGKSSKSLTKGNDIHLLIYHCLDVAAVADCWWDQSVVLQNTFCRNEMLSKQRVKAWLLFFIALHDIGKFDIRFQYKSAESWLKLNPATPSLNGPSTQMCRKFNHGAAGLYWFNQDSLSEQSLGDFFSFFDAAPHPYESWFPWVEAVTGHHGFILHSQDQDKSRWEMPASLASYAAQDKQAREEWISVLEALFLTPAGLSINDIPPDCSSLLAGFCSLADWLGSWTTTNTFLFNEDAPSDINALRTYFQDRQQDASRVLELSGLVSNKRCYEGVHALLDNGYQPRQLQVLVDALPVAPGLTVIEAPTGSGKTETALAYAWKLIDQQIADSVIFALPTQATANAMLTRMEASASHLFSSPNLILAHGNSRFNHLFQSIKSRAITEQGQEEAWVQCCQWLSQSNKKVFLGQIGVCTIDQVLISVLPVKHRFIRGLGIGRSVLIVDEVHAYDTYMNGLLEAVLKAQADVGGSVILLSATLPMKQKQKLLDTYGLHTDPVENNSAYPLINWRGVNGAQRFDLLAHPEQLPPRFSIQPEPICLADMLPDLTMLERMIAAANAGAQVCLICNLVDVAQVCYQRLKELNNTQVDIDLFHARFTLNDRREKENRVISNFGKNGKRNVGRILVATQVVEQSLDVDFDWLITQHCPADLLFQRLGRLHRHHRKYRPAGFEIPVATILLPDGEGYGRHEHIYSNVRVMWRTQQHIEELNGASLFFPDAYRQWLDSIYDDAEMDEPEWVGNGMDKFESAECEKRFKARKVLQWAEEYSLQDNDETILAVTRDGEMSLPLLPYVQTSSGKQLLDGQVYEDLSHEQQYEALALNRVNVPFTWKRSFSEVVDEDGLLWLEGKQNLDGWVWQGNSIVITYTGDEGMTRVIPANPK
chain 2: MSNFINIHVLISHSPSCLNRDDMNMQKDAIFGGKRRVRISSQSLKRAMRKSGYYAQNIGESSLRTIHLAQLRDVLRQKLGERFDQKIIDKTLALLSGKSVDEAEKISADAVTPWVVGEIAWFCEQVAKAEADNLDDKKLLKVLKEDIAAIRVNLQQGVDIALSGRMATSGMMTELGKVDGAMSIAHAITTHQVDSDIDWFTAVDDLQEQGSAHLGTQEFSSGVFYRYANINLAQLQENLGGASREQALEIATHVVHMLATEVPGAKQRTYAAFNPADMVMVNFSDMPLSMANAFEKAVKAKDGFLQPSIQAFNQYWDRVANGYGLNGAAAQFSLSDVDPITAQVKQMPTLEQLKSWVRNNGEA
B2: Cas3 of E. coli K12 Type I-E CRISPR/Cas complex [E. coli K12] / Cas1 of E. coli K12 Type I-E CRISPR/Cas complex [E. coli K12] (parent complex)
chain 1: B1 chain 1
chain 2: MTWLPLNPIPLKDRVSMIFLQYGQIDVIDGAFVLIDKTGIRTHIPVGSVACIMLEPGTRVSHAAVRLAAQVGTLLVWVGEAGVRVYASGQPGGARSDKLLYQAKLALDEDLRLKVVRKMFELRFGEPAPARRSVEQLRGIEGSRVRATYALLAKQYGVTWNGRRYDPKDWEKGDTINQCISAATSCLYGVTEAAILAAGYAPAIGFVHTGKPLSFVYDIADIIKFDTVVPKAFEIARRNPGEPDREVRLACRDIFRSSKTLAKLIPLIEDVLAAGEIQPPAPPEDAQPVAIPLPVSLGDAGHRSS
B3: Cas3 of E. coli K12 Type I-E CRISPR/Cas complex [E. coli K12] / Cas8 of E. coli K12 Type I-E CRISPR/Cas complex [E. coli K12] (parent complex)
chain 1: B1 chain 1
chain 2: MNLLIDNWIPVRPRNGGKVQIINLQSLYCSRDQWRLSLPRDDMELAALALLVCIGQIIAPAKDDVEFRHRIMNPLTEDEFQQLIAPWIDMFYLNHAEHPFMQTKGVKANDVTPMEKLLAGVSGATNCAFVNQPGQGEALCGGCTAIALFNQANQAPGFGGGFKSGLRGGTPVTTFVRGIDLRSTVLLNVLTLPRLQKQFPNESHTENQPTWIKPIKSNESIPASSIGFVRGLFWQPAHIELCDPIGIGKCSCCGQESNLRYTGFLKEKFTFTVNGLWPHPHSPCLVTVKKGEVEEKFLAFTTSAPSWTQISRVVVDKIIQNENGNRVAAVVNQFRNIAPQSPLELIMGGYRNNQASILERRHDVLMFNQGWQQYGNVINEIVTVGLGYKTALRKALYTFAEGFKNKDFKGAGVSVHETAERHFYRQSELLIPDVLANVNFSQADEVIADLRDKLHQLCEMLFNQSVAPYAHHPKLISTLALARATLYKHLRELKPQGGPSNG
B4: Cas3 of E. coli K12 Type I-E CRISPR/Cas complex [E. coli K12] / Cas2 of E. coli K12 Type I-E CRISPR/Cas complex [E. coli K12] (parent complex)
chain 1: B1 chain 1
chain 2: MSMLVVVTENVPPRLRGRLAIWLLEVRAGVYVGDVSAKIREMIWEQIAGLAEEGNVVMAWATNTETGFEFQTFGLNRRTPVDLDGLRLVSFLPV
B5: Cas3 of E. coli K12 Type I-E CRISPR/Cas complex [E. coli K12] / Cas6 of E. coli K12 Type I-E CRISPR/Cas complex [E. coli K12] (parent complex)
chain 1: B1 chain 1
chain 2: MYLSKVIIARAWSRDLYQLHQGLWHLFPNRPDAARDFLFHVEKRNTPEGCHVLLQSAQMPVSTAVATVIKTKQVEFQLQVGVPLYFRLRANPIKTILDNQKRLDSKGNIKRCRVPLIKEAEQIAWLQRKLGNAARVEDVHPISERPQYFSGDGKSGKIQTVCFEGVLTINDAPALIDLVQQGIGPAKSMGCGLLSLAPL
B6: Cas3 of E. coli K12 Type I-E CRISPR/Cas complex [E. coli K12] / Cas5 of E. coli K12 Type I-E CRISPR/Cas complex [E. coli K12] (parent complex)
chain 1: B1 chain 1
chain 2: MRSYLILRLAGPMQAWGQPTFEGTRPTGRFPTRSGLLGLLGACLGIQRDDTSSLQALSESVQFAVRCDELILDDRRVSVTGLRDYHTVLGAREDYRGLKSHETIQTWREYLCDASFTVALWLTPHATMVISELEKAVLKPRYTPYLGRRSCPLTHPLFLGTCQASDPQKALLNYEPVGGDIYSEESVTGHHLKFTARDEPMITLPRQFASREWYVIKGGMDVSQ
B7: Cas3 of E. coli K12 Type I-E CRISPR/Cas complex [E. coli K12] / Cas11 of E. coli K12 Type I-E CRISPR/Cas complex [E. coli K12] (parent complex)
chain 1: B1 chain 1
chain 2: MADEIDAMALYRAWQQLDNGSCAQIRRVSEPDELRDIPAFYRLVQPFGWENPRHQQALLRMVFCLSAGKNVIRHQDKKSEQTTGISLGRALANSGRINERRIFQLIRADRTADMVQLRRLLTHAEPVLDWPLMARMLTWWGKRERQQLLEDFVLTTNKNA

Variants of: B1
Test: SPEC system (split protease-E. coli ClpXP) in E. coli cells; parent: 100; read off a plot

Point of comparison: chain 1 K320N, percent of parent ~120%. Against it:
- chain 1 D452N — the same, ~120%
- chain 1 K78A — lower, ~73%
- chain 1 S483A, chain 1 T485A — lower, ~25%

Variants of: B2
Test: as above

Point of comparison: chain 1 K320N, percent of parent ~120%. Against it:
- chain 1 D452N — higher, ~130%
- chain 1 S483A, chain 1 T485A — lower, ~110%
- chain 1 K78A — lower, ~50%
- chain 1 H74A — lower, ~60%

Variants of: B3
Test: as above

Point of comparison: chain 1 H74A, percent of parent ~82%. Against it:
- chain 1 S483A, chain 1 T485A — higher, ~97%
- chain 1 K320N — higher, ~83%

Variants of: B4
Test: as above

Point of comparison: chain 1 H74A, percent of parent ~130%. Against it:
- chain 1 K78A — lower, ~110%
- chain 1 D452N — the same, ~130%
- chain 1 K320N — the same, ~130%

Variants of: B5
Test: as above

Point of comparison: chain 1 K320N, percent of parent ~120%. Against it:
- chain 1 K78A — lower, ~95%
- chain 1 S483A, chain 1 T485A — higher, ~130%
- chain 1 D452N — higher, ~140%
- chain 1 H74A — higher, ~150%
- chain 1 D75A — lower, ~110%

Variants of: B6
Test: as above

Point of comparison: chain 1 K78A, percent of parent ~67%. Against it:
- chain 1 H74A — lower, ~45%
- chain 1 D452N — higher, ~110%

Variants of: B7
Test: as above

Point of comparison: chain 1 S483A, chain 1 T485A, percent of parent ~73%. Against it:
- chain 1 H74A — higher, ~110%
- chain 1 K78A — higher, ~110%
